Source: article PMC11804706 (Proceedings of the National Academy of Sciences of the …, 2025)

B1: DnaJ, wild type (natural protein)
chain: MAKQDYYEILGVSKTAEEREIRKAYKRLAMKYHPDRNQGDKEAEAKFKEIKEAYEVLTDSQKRAAYDQYGHAAFEQGGMGGGGFGGGADFSDIFGDVFGDIFGGGRGRQRAARGADLRYNMELTLEEAVRGVTKEIRIPTLEECDVCHGSGAKPGTQPQTCPTCHGSGQVQMRQGFFAVQQTCPHCQGRGTLIKDPCNKCHGHGRVERSKTLSVKIPAGVDTGDRIRLAGEGEAGEHGAPAGDLYVQVQVKQHPIFEREGNNLYCEVPINFAMAALGGEIEVPTLDGRVKLKVPGETQTGKLFRMRGKGVKSVRGGAQGDLLCRVVVETPVGLNERQKQLLQELQESFGGPTGEHNSPRSKSFFDGVKKFFDDLTR
modifications: biotin (DnaJ-biotin in the pull-down assays with ClpB; sites not stated)

Assays:
[1] = molecular target: DnaJ, wild type (E. coli) (UniProt P08622); assay: pull-down
ClpB, wild type = ClpB, wild type (E. coli, UniProt P63284 1-857); assay: BLI
Chain of ClpB, wild type (P63284 whole entry): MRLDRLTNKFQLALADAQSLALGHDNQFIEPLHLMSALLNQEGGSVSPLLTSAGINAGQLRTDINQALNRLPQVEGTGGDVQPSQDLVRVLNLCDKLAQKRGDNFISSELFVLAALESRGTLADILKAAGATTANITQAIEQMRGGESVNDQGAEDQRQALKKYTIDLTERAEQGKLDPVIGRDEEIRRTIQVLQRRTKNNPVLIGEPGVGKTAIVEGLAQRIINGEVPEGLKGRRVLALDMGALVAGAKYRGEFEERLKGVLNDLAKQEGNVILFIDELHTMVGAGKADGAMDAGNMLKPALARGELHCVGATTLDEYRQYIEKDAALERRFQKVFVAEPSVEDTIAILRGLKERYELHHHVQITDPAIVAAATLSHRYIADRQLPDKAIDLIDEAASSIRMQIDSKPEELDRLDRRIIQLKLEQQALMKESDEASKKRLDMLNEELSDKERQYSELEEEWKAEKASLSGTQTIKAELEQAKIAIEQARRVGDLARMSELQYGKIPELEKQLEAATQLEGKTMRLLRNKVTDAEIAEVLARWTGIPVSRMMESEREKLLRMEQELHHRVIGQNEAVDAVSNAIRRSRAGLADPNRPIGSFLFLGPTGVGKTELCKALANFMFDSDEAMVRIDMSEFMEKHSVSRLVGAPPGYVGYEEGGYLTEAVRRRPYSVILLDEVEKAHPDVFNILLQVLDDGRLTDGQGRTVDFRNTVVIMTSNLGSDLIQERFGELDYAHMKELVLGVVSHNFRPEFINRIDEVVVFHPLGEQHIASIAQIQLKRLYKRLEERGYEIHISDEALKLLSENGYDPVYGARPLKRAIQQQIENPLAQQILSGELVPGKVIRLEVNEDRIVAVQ

Row | Molecule | binding as percent of wild-type ClpB [1] | Kd (ClpB, wild type)
1 | ΔN ClpB (ClpB mutant lacking the NTD) (domain or fragment) | 40% | 
2 | B1 |  | 55.2 ± 9.9 nM
